Molecular target: MbnN from Methylosinus trichosporium OB3b, tagless (C-terminal His6 tag removed by TEV protease) (Methylosinus trichosporium OB3b)
Assay: native gel or EMSA

## MbnN from Methylosinus trichosporium OB3b, tagless (C-terminal His6 tag removed by TEV protease) (enzyme)
  stoichiometry N: 2

From article PMC6019534
